Test results taken from the nanobody polyreactivity screen of Harvey et al. (2022).

Test: yeast display, Sf9 membrane polyspecificity reagent, FACS + sequencing; frameworks hold sequencing errors
Summary of the method: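 Polyreactivity labels are assigned by the sorting gate from which each nanobody was recovered. The gates were low and high (top ~1%), set on anti-HA fluorescence for expression and streptavidin fluorescence for reagent binding. Before sorting, galactose-induced (36–48 hours) yeast display cells were stained for 1 hour at 4 °C with 10% biotinylated, detergent-solubilized Sf9 membrane reagent.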
With “QVQLVESGGGLVQAGGSLRLSCAASGSIFYSYTMGWYRQAPGKEMELVAAINSGGSTYYADSVKGRFTISRDNAKNTVYLQMNSLKREDTAVYYCAARRTTSSGGYYYWGQGTQVTVSS” the “polyreactivity (PSR sort gate)” value was “high polyreactivity”.
In the case of “QVQLVESGGGLVQAGGSLRLSCAASGSIFYTNAKGWYRPAPGKERELVAAISYGGTTTYADSVKGRFTISRDNAKNTVYLQMNSLIPEDTAVYYCNADWLYYGYWGYGHIWYDFWGQGTQVTVSS”, the “polyreactivity (PSR sort gate)” value is reported as “low polyreactivity”.
In the case of “QVQLVESGGGLVQAGGSLRLSCAASGSIFYTNALGWSRQARGKERELVAAMSISGSTYYADSVKGRFTISRDNAKNTVYLQMNSLKPEDTAVYYCAAGPGYVRYPRSGVWYVTLYDYWGQGTQVTVSS”, the “polyreactivity (PSR sort gate)” value is reported as “high polyreactivity”.
With “QVQLVESGGGLVQAGGSLRLSCAASGSIFYTNAMGWYRQAPGKERELVAAIRKSGGSTYYADSVKGRFTISRDNAKNTVYLQMNSLKPEDTAVYYCNKLYRVPQDLHDYWGQGTQVTVSS” the “polyreactivity (PSR sort gate)” value was “high polyreactivity”.
For “QVQLVESGGGLVQAGGSLRLSCAASGSIFYTYAMGGYRPAPGKERELVAAISSGGSTTYADSVKGRFTISRDNAKNTVYLQMTSLKPEDTAVYYCNTSYRKKKRYYYWGQGTQVTVSS”, the “polyreactivity (PSR sort gate)” value was “high polyreactivity”.
For “QVQLVESGGGLVQAGGSLRLSCAASGSIFYTYAMGWYRQAPGKERELVADITTNGGNTYYADSVKGRFTISRDNAKNTVYLQMNSLKPEDTAVYYCARDRYDEPDEGDYDYWGQGTQVTVSS”, the “polyreactivity (PSR sort gate)” value was “low polyreactivity”.
In the case of “QVQLVESGGGLVQAGGSLRLSCAASGSIFYTYVMGWYRQAPGKERELVAAISASGVRTYYADSVKGRFTISRDNAKNTVYLQMNSLKPEDTAVYYCAADRQRADYYWGQGTQVTVSS”, the “polyreactivity (PSR sort gate)” value is reported as “high polyreactivity”.
For “QVQLVESGGGLVQAGGSLRLSCAASGSIFYTYVMGWYRQAPGKERELVAAISASGVRTYYADSVKGRFTISRDNAKNTVYLQMNSLKPEDTAVYYCAARYATWYFRRGRKTSDYDYWGQGTQVTVSS”, the “polyreactivity (PSR sort gate)” value was “high polyreactivity”.
With “QVQLVESGGGLVQAGGSLRLSCAASGSIFYVNAMGWYRQAPGKERELVAAISVRGGRTYYADSVKGRFTISRDNAKNTVYLQMNILNPEDTAVYYCATRISTVGRYDYWGEGTQVTVSS” the “polyreactivity (PSR sort gate)” value was “high polyreactivity”.
For “QVQLVESGGGLVQAGGSLRLSCAASGSIFYVNGMGWYRQAPGKEREFVARITLSGTSTYYADSVKGRFTISRDNAKNTVYLQMNSLKPEDTAVSYCAAPYFTYGQDDDDYWGQGTQVTVSS”, the “polyreactivity (PSR sort gate)” value was “low polyreactivity”.
For “QVQLVESGGGLVQAGGSLRLSCAASGSIFYVYAMGGYRQAPGKERELVAAISRRGARTYYADSVKGRFTISRDNAKNTVYLQMNSLKPEDTAVYYCNADQYYTVGYSAEYEYWGQGTQVTVSS”, the “polyreactivity (PSR sort gate)” value was “low polyreactivity”.
For “QVQLVESGGGLVQAGGSLRLSCAASGSIFYVYAMGWYRQAPGKERELVAAISDDGDTYYADSVKGRFTISRDNAKNTVYLQMNSLNPEDTAVYYCAAEGGANEENSSPEYDYWGQGTQVTVSS”, the “polyreactivity (PSR sort gate)” value was “low polyreactivity”.
In the case of “QVQLVESGGGLVQAGGSLRLSCAASGSIFYVYAMGWYRQAPGKERELVAAITNYADSVKGRFTISRDNAKNTVYLQMNSQKPPDTAVYYCAADWWRVEMDYWGQGTQVTVSS”, the “polyreactivity (PSR sort gate)” value is reported as “low polyreactivity”.
In the case of “QVQLVESGGGLVQAGGSLRLSCAASGSIFYVYAMGWYRQAPGKERELVAAITSSGTTNYADSVKGRLTISRDNAKNTVYLQMNSLKPEDTAVYYCAADPDSGQVPFDYWGQGTQVTVSS”, the “polyreactivity (PSR sort gate)” value is reported as “low polyreactivity”.
With “QVQLVESGGGLVQAGGSLRLSCAASGSIFYVYAMGWYRQAPGKERELVAAITWSGGSTYYADSVKGRFTISRDNAKNTVYLQMNSLKPEDTAVYYCAADEGYDYPYYYWGQGTQVTVSS” the “polyreactivity (PSR sort gate)” value was “high polyreactivity”.
With “QVQLVESGGGLVQAGGSLRLSCAASGSIFYVYAMGWYRQAPGKERELVASINKSGGSTYYADSVKGRFTISRDNAKNTVYLQMNSLKPEDTAVYYCAARTGWPRVGFQYPAHVGFDYWGQGTQVTVSS” the “polyreactivity (PSR sort gate)” value was “low polyreactivity”.
For “QVQLVESGGGLVQAGGSLRLSCAASGSIFYVYAMGWYRQAPGKERELVASIRWIGDRTYYADSVKGRFTISRDNAKNTVYLQMNSLKPEDTAVYYCAADPRYYGYYYLTPRYYYWGQGTQVTVSS”, the “polyreactivity (PSR sort gate)” value was “high polyreactivity”.
With “QVQLVESGGGLVQAGGSLRLSCAASGSIFYVYAMVWYRQAPGKEREFVASIRTSGSSTYADSVKGRFTISRDNAKNTVYLQMNSLKPEDTAVYYCAAGSITVFWKRTGYRWRGYDYWGQGTQVTVSS” the “polyreactivity (PSR sort gate)” value was “low polyreactivity”.
In the case of “QVQLVESGGGLVQAGGSLRLSCAASGSIFYVYGMGWYRQAPGKERELVARITDSGGSTSYADSVKGRFTISRDNAKNTVYLQMNSLKPEDTAVYYCAAYVRPWYNYWGQGTQVTVSS”, the “polyreactivity (PSR sort gate)” value is reported as “low polyreactivity”.
For “QVQLVESGGGLVQAGGSLRLSCAASGSIFYVYTMGWYRQAPGKERELVAAITVSGGRTYYADSVKGRFTISRDNAKNTVYLQLNSLKPEDTAVYYCAADTAWPYYIYWSYDYWGQGTQVTVSS”, the “polyreactivity (PSR sort gate)” value was “low polyreactivity”.
With “QVQLVESGGGLVQAGGSLRLSCAASGSIFYWNAMGWYRQAPGKERELVAAINYSGDSTYYADSVKGRFTISRDNAKNTVYLQMNSLKPEDTAVYYCNFDYWGQGTQVTVSS” the “polyreactivity (PSR sort gate)” value was “low polyreactivity”.
In the case of “QVQLVESGGGLVQAGGSLRLSCAASGSIFYWYALGWYRQAPGKERELVAAITYSGDRTYYADSVKGRFTISRDNAKNTVYLQMNSLKPEVTAVYYCAKDRGSGPLDYWGQGTQVTVSS”, the “polyreactivity (PSR sort gate)” value is reported as “low polyreactivity”.
In the case of “QVQLVESGGGLVQAGGSLRLSCAASGSIFYWYAMGWYRQAPGKERELVAAISRNGGNTYYADSVKGRFTISRDNAKNTVYLQMNSLKPEDTAVYYCAAQLFVRRWMDYWGQGTQVTVSS”, the “polyreactivity (PSR sort gate)” value is reported as “low polyreactivity”.
For “QVQLVESGGGLVQAGGSLRLSCAASGSIFYWYAMGWYRQAPGKERELVASITTAGSTYYADSVKGRFTISRDNAKNTVYLQMNSLKPEDTAVYYCNTVPYGYHGYLYLYTYGYWGQGTQVTVSS”, the “polyreactivity (PSR sort gate)” value was “high polyreactivity”.
For “QVQLVESGGGLVQAGGSLRLSCAASGSIFYWYAMGWYRQAPGKERELVATITRGGSTNYADSVKGRFTISRDNAKNTVYLQMNSLKPEDTAVYYCAAQRVGHKRSTKLDYWGQGTQVTVSS”, the “polyreactivity (PSR sort gate)” value was “low polyreactivity”.
For “QVQLVESGGGLVQAGGSLRLSCAASGSIFYWYAMGWYRQAPGKERELVAVISSGGSTYYADSVKGRFTISRDNAKNTVYLQMNSLKPEDTAVYYCNAGPLRSGRYTYYYWGQGTQVTVSS”, the “polyreactivity (PSR sort gate)” value was “low polyreactivity”.
With “QVQLVESGGGLVQAGGSLRLSCAASGSIFYWYDMGWYRHAPGKEWELVAAISFNVGSTYADSVKGRFTISRDNAKNTFYLQMNSLKPEDTAVYYCNVDAYRTSYEADVYYYTWIYYWGQGTQVTVSS” the “polyreactivity (PSR sort gate)” value was “low polyreactivity”.
For “QVQLVESGGGLVQAGGSLRLSCAASGSIFYYAMGWYREAPGKERELVAAISRSGGSTYYADSVKGRFTISRDNAKNTVYLQMNSLKPEDTAVYYCAKGYRGYSYGYWRQGTQVTVSS”, the “polyreactivity (PSR sort gate)” value was “high polyreactivity”.
For “QVQLVESGGGLVQAGGSLRLSCAASGSIFYYAMGWYRQAPWKERELVADISTGGSTHYADSVKGRFTISRDNAKNTVYLQMNSLKPEDTAVYYCAKEAWRYRLNFRYNYWGQGTQVTVSS”, the “polyreactivity (PSR sort gate)” value was “low polyreactivity”.
With “QVQLVESGGGLVQAGGSLRLSCAASGSIFYYAMGWYRQATGKERELVAAITTGDGTNYADSVKGRFTISRDNAKNTVYLQMNSLKPEDTAVYYCAKSTYKPYYYYFPYDYWGQGTQVTVSS” the “polyreactivity (PSR sort gate)” value was “low polyreactivity”.
In the case of “QVQLVESGGGLVQAGGSLRLSCAASGSIFYYNAMGWYRPAPGKERELVADISTSGSTYYADSVKGRFTISRDNAKNTVYLQMNSLKPEDTAVYYCNADYLPQEGEFSYPYDYWGQGTQVTVSS”, the “polyreactivity (PSR sort gate)” value is reported as “low polyreactivity”.
In the case of “QVQLVESGGGLVQAGGSLRLSCAASGSIFYYNAMGWYRQPPGKERELVAAISWSGDSTYYADSVKGRFTISRDNAKNTVYLQMNSLKPEDTAVYYCNTELVPWTEYWYDYWGQGNQVTVSS”, the “polyreactivity (PSR sort gate)” value is reported as “low polyreactivity”.
In the case of “QVQLVESGGGLVQAGGSLRLSCAASGSIFYYNARGGYRQAPGKERELVATIRTSGGSTYYADSVKGRFTISRDNAMNTVYVQLNSLKPEDTAVYYCAARDLRKLYSRYPYYYWGQGTQVTVSS”, the “polyreactivity (PSR sort gate)” value is reported as “high polyreactivity”.
With “QVQLVESGGGLVQAGGSLRLSCAASGSIFYYNTMGWYRQAPGKERELVAAISWSGGSTSYADSVKGRFTISRDNAKNTVYLQMNSLKPEDTAVYYCAAKAVGLGKSWRGDDYWGQGTQVTVSS” the “polyreactivity (PSR sort gate)” value was “low polyreactivity”.
For “QVQLVESGGGLVQAGGSLRLSCAASGSIFYYNTMGWYRQAPGKERELVAAISWSGGSTSYADSVKWRFTISRDNAKNTVYLQMNSLKPEDTAVYYCNVDYGVHVPPRDYWGQGTQVTVSS”, the “polyreactivity (PSR sort gate)” value was “low polyreactivity”.
With “QVQLVESGGGLVQAGGSLRLSCAASGSIFYYYAMGCYTQAPGKERELVAAITSGGSTYYADSVNGRFTISRDNAKNSGYLQMNSLKPEDTAVYYCNNAFPYFDDYWGQGTQVTVSS” the “polyreactivity (PSR sort gate)” value was “low polyreactivity”.
With “QVQLVESGGGLVQAGGSLRLSCAASGSIFYYYAMGWDRQENGKESELVAAIDWDGGTTYYADSVMGLFTISRDNAKNTVYLQMNSLKPEDTAVFYCAGEVLYGPGGGYEYWGQGTQVTVSS” the “polyreactivity (PSR sort gate)” value was “high polyreactivity”.
For “QVQLVESGGGLVQAGGSLRLSCAASGSIFYYYAMGWYRQAPGKERELVAAITRSGSSTYYADSVKGRFTISRDNAKNTVYLQMNSLKPEDTAVYYCAAKSKRGSRYDSWGQGTQVTVSS”, the “polyreactivity (PSR sort gate)” value was “high polyreactivity”.
For “QVQLVESGGGLVQAGGSLRLSCAASGSIFYYYAMGWYRQAPGKERELVASISRSGGSTFYADSVKGRFTISRDNAKNTVYLQMNSLKPEDTAVYYCATGWYYSPYNYWGQGTQVTVSS”, the “polyreactivity (PSR sort gate)” value was “high polyreactivity”.
In the case of “QVQLVESGGGLVQAGGSLRLSCAASGSIFYYYSMGWYRQAPGKERELVARITSGGTNYADSVKGRFTISRDNAKNTVYLQMNSLKPEDTAVYYCNADHSTWLYKRYDYWGQGTQVTVSS”, the “polyreactivity (PSR sort gate)” value is reported as “low polyreactivity”.
In the case of “QVQLVESGGGLVQAGGSLRLSCAASGSIFYYYTRGWSRQAPGKEMELVAAITSGGSTYYADSVKGRFTISRDNAKNTVYLQMNSLKPEDTAVYYCAAPIYYRLWKPGYEYWGQGTQVTVSS”, the “polyreactivity (PSR sort gate)” value is reported as “high polyreactivity”.
For “QVQLVESGGGLVQAGGSLRLSCAASGSIFYYYVMGWYRQAPGKEREFGAAISWGGDSTYYADSVKGRFTISRDNAMYTVYLQMNSLKPEDTAVYYCNADYPWSVVCYAYWGQGTQVTVSS”, the “polyreactivity (PSR sort gate)” value was “low polyreactivity”.
In the case of “QVQLVESGGGLVQAGGSLRLSCAASGSIIARYAMGWYRQAPGKERELVAAITWSATSTYYADSVKGRFTISRDNAKNTVYLQMNSLKREDTAVYYCNAGASYFLVISQSRRDYWGQGTQVTVSS”, the “polyreactivity (PSR sort gate)” value is reported as “low polyreactivity”.
